{"source": "patent US20250383350", "about": "“ANALYTE DETECTION USING APTAMERS” (The Regents of the University of Michigan, published 2025)", "binders": {"B1": {"name": "8A-44 (SEQ ID NO 1) (ssRNA)", "RNA": "GGGGGCUUAUCAUUCCAUUUAGUGUUAUGAUAACCUCUCCCAUA", "modifications": "2'-F at C and U (printed i2FC/i2FU up to position 36; text states all pyrimidines)"}}, "key": {"[1]": {"molecular_target": "T1, IL-8 (CXCL8), captured by monoclonal antibody (Homo sapiens, UniProt P10145 P10145:28-99)", "T1 sequence (P10145 28-99, one chain of several)": "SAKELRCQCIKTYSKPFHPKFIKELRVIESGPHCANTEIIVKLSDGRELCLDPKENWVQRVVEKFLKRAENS", "assay": "single-molecule TIRF; antibody-mediated capture; 25% horse serum, 21 C; kon 4.48e6, koff 1.17", "conditions": "tags: Bio-Rad BR-1098; captured by biotinylated anti-IL-8 EPR19358-108; label: 5'-Cy5", "description": "(§1) SiMREPS assays of recombinant antigens-All sample handling was performed in GeneMate low-adhesion 1.7-mL microcentrifuge tubes, and dilutions were performed in 25% horse serum, 0.75×PBS, pH 7.4, and 7.5 mg/mL BSA. The slide surface was washed with 100 μL of T50 buffer (10 mM Tris-HCl, 50 mM NaCl, 1 mm EDTA, pH 8.0) for 10 minutes followed by the addition of 40 μL 1 mg/mL streptavidin. After 10 minutes, excess streptavidin was removed, and the sample chamber washed three times with 100 μL of 1×PBS. Next, the coverslip was coated with the biotinylated capture antibody by adding 40 μL of a solution containing 10 nM of biotinylated capture antibody in 1×PBS buffer and incubating for 30 minutes. […]\n(§2) To systematically assess the effect of aptamer size on the kinetics of binding to the small (8.4 kDa) protein IL-8, two different antigen capture strategies were used: direct capture, in which C-terminally biotin labelled IL-8 was immobilized directly on the surface by the biotin-streptavidin interaction; and antibody mediated capture, in which non-biotinylated IL-8 was captured on the surface by a surface-immobilized biotinylated monoclonal antibody (FIG. 7A). […] To gain more quantitative insight, association and dissociation rate constants were calculated from the dwell time distributions in the aptamer-unbound and -bound states, respectively, and are shown in Table 2."}, "[2]": {"molecular_target": "T2, IL-8 (CXCL8), C-terminally biotinylated, directly surface-captured (Homo sapiens, UniProt P10145 P10145:28-99)", "T2 sequence (P10145 28-99, one chain of several)": "as above", "assay": "single-molecule TIRF; direct IL-8 capture; 25% horse serum, 21 C; kon 5.68e6, koff 0.50", "conditions": "tags: C-terminal biotin; Chemotactics B-CXCL8-2 ug; immobilized on streptavidin; label: 5'-Cy5", "from_the_text": "as §2"}, "VEGF165 [3]": {"molecular_target": "T3, VEGF165 (Homo sapiens, UniProt P15692-4 P15692-4:27-191)", "T3 sequence (P15692 other isoform, or with tags, fused parts or gaps)": "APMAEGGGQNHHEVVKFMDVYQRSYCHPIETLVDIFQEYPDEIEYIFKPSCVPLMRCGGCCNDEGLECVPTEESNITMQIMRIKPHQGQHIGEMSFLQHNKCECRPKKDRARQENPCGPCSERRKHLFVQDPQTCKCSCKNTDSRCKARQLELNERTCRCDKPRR", "assay": "single-molecule TIRF; same buffer as t22 G->A", "conditions": "tags: Abcam ab9571; captured by biotinylated anti-VEGF165 IgG (Bio-Rad); chain copies: 2; label: 3'-Cy5"}, "VEGF165 [4]": {"molecular_target": "T3, VEGF165", "assay": "single-molecule TIRF", "conditions": "tags: Abcam ab9571; captured by biotinylated anti-VEGF165 IgG (Bio-Rad); chain copies: 2; label: 3'-Cy5"}, "[5]": {"molecular_target": "T2, IL-8 (CXCL8), C-terminally …", "assay": "single-molecule TIRF; direct IL-8 capture; 25% horse serum, 21 C; kon 2.08e6, koff 0.55", "conditions": "tags: C-terminal biotin; Chemotactics B-CXCL8-2 ug; immobilized on streptavidin; label: 3'-Cy5", "from_the_text": "as §2"}, "[6]": {"molecular_target": "T1, IL-8 (CXCL8), captured by monoclonal …", "assay": "single-molecule TIRF; antibody-mediated capture; 25% horse serum, 21 C; kon 0.99e6, koff 2.50", "conditions": "tags: Bio-Rad BR-1098; captured by biotinylated anti-IL-8 EPR19358-108; label: 3'-Cy5", "description": "as §1, §2"}, "[7]": {"molecular_target": "T2, IL-8 (CXCL8), C-terminally …", "assay": "single-molecule TIRF; direct IL-8 capture; 25% horse serum, 21 C; kon 3.21e6, koff 0.54", "conditions": "tags: C-terminal biotin; Chemotactics B-CXCL8-2 ug; immobilized on streptavidin; label: 3'-Cy5", "from_the_text": "as §2"}, "[8]": {"molecular_target": "T1, IL-8 (CXCL8), captured by monoclonal …", "assay": "single-molecule TIRF; antibody-mediated capture; 25% horse serum, 21 C; kon 2.29e6, koff 2.32", "conditions": "tags: Bio-Rad BR-1098; captured by biotinylated anti-IL-8 EPR19358-108; label: 3'-Cy5", "description": "as §1, §2"}}}
{"binder": "GGGUUAUCAUUCCAUUUAGUGUUAUGAUAA (ssRNA, 2'-F at all pyrimidines)", "note": "[8A-30 (SEQ ID NO 3)]", "values": [{"measurement": "Kd", "setting": "[1]", "result": 261, "unit": "nM"}, {"measurement": "Kd", "setting": "[2]", "result": 88, "unit": "nM"}]}
{"binder": "GCGGUAGGAAGAAUUGGAAGCGC (ssRNA, 2'-F at all pyrimidines)", "note": "[t22 (SEQ ID NO 4)]", "values": [{"measurement": "koff", "setting": "VEGF165 [3]", "result": 0.02, "unit": "s⁻¹"}, {"measurement": "kon", "setting": "VEGF165 [4]", "result": 220000, "unit": "M⁻¹ s⁻¹"}]}
{"binder": "B1", "values": [{"measurement": "Kd", "setting": "[5]", "result": 264, "unit": "nM"}, {"measurement": "Kd", "setting": "[6]", "result": 2520, "unit": "nM"}]}
{"binder": "GGGGGCUUAUCAUUCCAUUUAGUGUUAUGAUAACC (ssRNA, 2'-F at all pyrimidines)", "note": "[8A-35 (SEQ ID NO 2)]", "values": [{"measurement": "Kd", "setting": "[7]", "result": 168, "unit": "nM"}, {"measurement": "Kd", "setting": "[8]", "result": 1010, "unit": "nM"}]}
